In this experiment the target is recombinant MUC5AC C terminus protein (human). Kind of experiment: SDS-PAGE under non-reducing and reducing conditions with western blot; purified recombinant protein from cell lysates and cell supernatants run reduced and non-reduced on 6% Bis-Tris acrylamide or 3%-8% Tris-Acetate gels, transferred to PVDF, probed with a His antibody. (Immunoblotting shows a protein as a band on a membrane.)

The source of these data is publication PMC5590460.

For the substance “recombinant MUC5AC C terminus protein (domain or fragment)”, the stoichiometry N came to 2.

As usually defined, the stoichiometry N is the number of molecules, sites or subunits per partner or assembly.
